Consider three molecules from publication PMC3163439 (Molecular cell, 2009).

The term stoichiometry N denotes a count of units in the complex or per binding partner.

The target in test [1] is BAX, in vitro translated (UniProt Q07813). The test can be described thus: co-IP.
For test [2], the target named is BAX, in vitro translated (UniProt Q07813 1-192). The test can be described thus: co-IP.
Sequence of BAX, in vitro translated (UniProt Q07813 1-192) (Q07813 whole entry): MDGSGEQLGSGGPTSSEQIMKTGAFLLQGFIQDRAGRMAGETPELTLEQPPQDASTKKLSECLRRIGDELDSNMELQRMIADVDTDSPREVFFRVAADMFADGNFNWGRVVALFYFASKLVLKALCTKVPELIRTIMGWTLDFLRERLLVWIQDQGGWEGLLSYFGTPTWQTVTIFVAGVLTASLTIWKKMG

Sequence of BAX, in vitro translated (UniProt Q07813) (Q07813 whole entry): as above

With “truncated BID (tBID), in vitro translated (domain or fragment)”, the stoichiometry N in test [1] turned out to be 1.

B1: PUMA, in vitro translated (natural protein, UniProt Q99ML1 1-193, looked up)
chain: MARARQEGSSPEPVEGLARDSPRPFPLGRLMPSAVSCSLCEPGLPAAPAAPALLPAAYLCAPTAPPAVTAALGGPRWPGGHRSRPRGPRPDGPQPSLSPAQQHLESPVPSAPEALAGGPTQAAPGVRVEEEEWAREIGAQLRRMADDLNAQYERRRQEEQHRHRPSPWRVMYNLFMGLLPLPRDPGAPEMEPN
For B1, in test [2], the “stoichiometry N” value is about 1.

B2: BIM, in vitro translated (natural protein, UniProt O54918 1-196, looked up)
chain: MAKQPSDVSSECDREGGQLQPAERPPQLRPGAPTSLQTEPQGNPDGEGDRCPHGSPQGPLAPPASPGPFATRSPLFIFVRRSSLLSRSSSGYFSFDTDRSPAPMSCDKSTQTPSPPCQAFNHYLSAMASIRQSQEEPEDLRPEIRIAQELRRIGDEFNETYTRRVFANDYREAEDHPQMVILQLLRFIFRLVWRRH
In the case of B2, the “stoichiometry N” value in test [2] was about 1.
